# Paper PMC10034259
# Biological target: cys-protein G conjugated to a peptide nucleic acid strand (PG-PNA)
substance,measurement,value
"RBD, Fc (SARS-CoV-2 spike receptor binding domain with Fc) (from UniProt P0DTC2) (Fc fusion)",stoichiometry N,2.82 RBD:PG
